Patent publication US20220332804A1 (CSL INNOVATION, published 2022)

What was measured:
Test in all cases: SPR, mAb captured, C2 mutant analyte;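 also: Anti-C2 mAbs captured on goat anti-human IgG Biacore CM5 chips, alanine or serine C2 surface mutants flowed over at 37 °C, double-referenced sensorgrams fitted to a 1:1 binding model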
[1] = target: T1, human C2 V448A (human, UniProt P06681 21-752)
T1 sequence: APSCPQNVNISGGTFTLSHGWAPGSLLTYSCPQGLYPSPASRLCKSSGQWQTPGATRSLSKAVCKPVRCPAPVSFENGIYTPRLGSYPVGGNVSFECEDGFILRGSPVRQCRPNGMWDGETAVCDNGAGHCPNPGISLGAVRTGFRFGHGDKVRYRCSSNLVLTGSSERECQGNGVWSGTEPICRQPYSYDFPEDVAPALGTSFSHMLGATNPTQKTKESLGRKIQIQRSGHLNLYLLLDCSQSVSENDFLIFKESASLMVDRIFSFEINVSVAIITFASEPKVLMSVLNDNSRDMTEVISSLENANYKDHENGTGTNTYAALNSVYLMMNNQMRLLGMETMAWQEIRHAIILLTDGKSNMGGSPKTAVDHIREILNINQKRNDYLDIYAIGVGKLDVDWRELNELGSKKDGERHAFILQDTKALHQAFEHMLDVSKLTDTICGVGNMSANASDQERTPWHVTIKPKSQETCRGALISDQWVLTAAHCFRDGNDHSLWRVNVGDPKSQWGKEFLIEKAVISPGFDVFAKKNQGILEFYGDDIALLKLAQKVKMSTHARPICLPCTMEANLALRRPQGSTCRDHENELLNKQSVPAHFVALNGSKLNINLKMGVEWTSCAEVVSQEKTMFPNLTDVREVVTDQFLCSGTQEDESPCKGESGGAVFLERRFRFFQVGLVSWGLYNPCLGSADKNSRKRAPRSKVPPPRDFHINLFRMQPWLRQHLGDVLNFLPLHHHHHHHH

[2] = target: T2, human C2 Y328A (human, UniProt P06681 21-752)
T2 sequence: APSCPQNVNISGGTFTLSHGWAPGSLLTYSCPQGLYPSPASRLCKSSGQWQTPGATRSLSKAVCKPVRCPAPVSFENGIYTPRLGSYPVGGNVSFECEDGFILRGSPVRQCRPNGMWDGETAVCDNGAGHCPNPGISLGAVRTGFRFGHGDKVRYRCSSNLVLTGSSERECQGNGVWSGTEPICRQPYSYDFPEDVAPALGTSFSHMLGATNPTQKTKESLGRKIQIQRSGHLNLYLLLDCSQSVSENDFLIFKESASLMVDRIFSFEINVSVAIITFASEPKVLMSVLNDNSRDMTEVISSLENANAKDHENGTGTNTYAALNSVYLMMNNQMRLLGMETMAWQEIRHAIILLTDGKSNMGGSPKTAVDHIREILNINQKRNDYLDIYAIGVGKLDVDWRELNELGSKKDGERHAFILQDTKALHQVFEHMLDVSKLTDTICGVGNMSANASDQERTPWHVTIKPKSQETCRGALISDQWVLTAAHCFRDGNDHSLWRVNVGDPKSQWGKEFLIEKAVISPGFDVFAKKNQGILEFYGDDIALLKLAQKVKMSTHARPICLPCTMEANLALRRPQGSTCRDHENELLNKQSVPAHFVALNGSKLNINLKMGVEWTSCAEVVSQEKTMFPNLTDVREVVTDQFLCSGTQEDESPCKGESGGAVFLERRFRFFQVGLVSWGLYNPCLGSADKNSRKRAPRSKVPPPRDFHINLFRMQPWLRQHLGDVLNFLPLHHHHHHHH

[3] = target: T3, human C2 N325A (human, UniProt P06681 21-752)
T3 sequence: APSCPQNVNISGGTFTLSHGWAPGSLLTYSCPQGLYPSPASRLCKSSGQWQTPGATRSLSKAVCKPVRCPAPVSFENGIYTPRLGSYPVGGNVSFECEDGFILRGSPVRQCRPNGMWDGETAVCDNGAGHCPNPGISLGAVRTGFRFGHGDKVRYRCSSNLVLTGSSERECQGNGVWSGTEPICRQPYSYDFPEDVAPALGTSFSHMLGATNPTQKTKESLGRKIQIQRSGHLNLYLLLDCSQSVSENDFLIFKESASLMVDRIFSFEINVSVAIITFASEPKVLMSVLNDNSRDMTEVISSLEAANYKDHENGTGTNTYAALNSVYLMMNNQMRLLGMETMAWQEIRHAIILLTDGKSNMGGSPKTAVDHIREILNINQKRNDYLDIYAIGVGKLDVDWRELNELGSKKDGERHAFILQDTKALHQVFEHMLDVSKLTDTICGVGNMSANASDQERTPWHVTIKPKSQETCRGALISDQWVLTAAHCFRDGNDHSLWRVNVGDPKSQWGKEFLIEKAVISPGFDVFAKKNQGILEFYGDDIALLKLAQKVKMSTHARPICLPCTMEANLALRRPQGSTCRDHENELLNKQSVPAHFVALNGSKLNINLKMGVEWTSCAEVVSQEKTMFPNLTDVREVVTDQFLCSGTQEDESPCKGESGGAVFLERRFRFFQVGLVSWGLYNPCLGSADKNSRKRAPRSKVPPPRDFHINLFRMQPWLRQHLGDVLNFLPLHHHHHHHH

[4] = target: T4, human C2 E476A (human, UniProt P06681 21-752)
T4 sequence: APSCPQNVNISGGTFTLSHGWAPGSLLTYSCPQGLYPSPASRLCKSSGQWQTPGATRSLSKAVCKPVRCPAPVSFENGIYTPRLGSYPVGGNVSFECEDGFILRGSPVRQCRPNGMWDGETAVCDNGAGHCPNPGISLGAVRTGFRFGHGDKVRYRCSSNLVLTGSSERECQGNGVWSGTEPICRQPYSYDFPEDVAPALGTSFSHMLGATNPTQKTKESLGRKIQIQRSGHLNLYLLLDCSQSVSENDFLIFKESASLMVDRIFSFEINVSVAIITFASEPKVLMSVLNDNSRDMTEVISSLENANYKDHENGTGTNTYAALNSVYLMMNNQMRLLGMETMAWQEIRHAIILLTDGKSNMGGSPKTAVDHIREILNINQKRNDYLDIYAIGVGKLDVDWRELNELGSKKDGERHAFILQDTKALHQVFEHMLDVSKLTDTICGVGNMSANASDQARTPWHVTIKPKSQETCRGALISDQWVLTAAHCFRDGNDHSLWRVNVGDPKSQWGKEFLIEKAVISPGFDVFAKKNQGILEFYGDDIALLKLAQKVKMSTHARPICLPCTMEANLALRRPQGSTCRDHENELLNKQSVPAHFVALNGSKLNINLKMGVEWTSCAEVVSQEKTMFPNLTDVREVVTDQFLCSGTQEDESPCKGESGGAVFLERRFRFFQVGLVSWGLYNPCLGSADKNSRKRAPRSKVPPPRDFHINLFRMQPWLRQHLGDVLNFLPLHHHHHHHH

Kd [1]: 6.9 nM
Kd [2]: 196 nM
Kd [3]: 328 nM
Kd [4]: 58.6 nM
B1: RF16-214 (antibody, V domains shown)
VH: EVQLLESGGGLVQPGGSLRLSCAASGFTFSWYQMMWVRQAPGKGLEWVSRIYPSGGGTAYADSVKGRFTISRDNSKNTLYLQMNSLRAEDTAVYYCARDAGYGDNWGQGTLVTVSS
VL: QSALTQPPSVSVSPGQTASITCSGDKLGEKYASWYQQKAGQSPVMVIYQDRKRPSGIPERFSGSNSGNTATLTISGTQAMDEADYYCQAWDTRAVVFGGGTKLTVLG
